Laboratory results published in patent US5928933A, “Process for the enzymatic resolution of N-(alkoxycarbonyl)-4-ketoproline alkyl esters or N-(alkoxycarbonyl)-4-hydroxyproline alkyl esters using Candida antarctica lipase B” (priority 1998, dated 1999).

B1: protease, trypsin porcine pancreas: commercial trypsin, source porcine pancreas (protein, UniProt P00761 9-231, looked up)
Trypsin: IVGGYTCAANSIPYQVSLNSGSHFCGGSLINSQWVVSAAHCYKSRIQVRLGEHNIDVLEGNEQFINAAKIITHPNFNGNTLDNDIMLIKLSSPATLNSRVATVSLPRSCAAAGTECLISGWGNTKSSGSSYPSLLQCLKAPVLSDSSCKSSYPGQITGNMICVGFLEGGKDSCQGDSGGPVVCNGQLQGIVSWGYGCAQKNKPGVYTKVCNYVNWIQQTIAAN
B2: protease, type XXIV: commercial enzyme preparation, source bacterial (subtil. Carlsberg) (protein, UniProt P00780 106-379, looked up)
Subtilisin Carlsberg: AQTVPYGIPLIKADKVQAQGFKGANVKVAVLDTGIQASHPDLNVVGGASFVAGEAYNTDGNGHGTHVAGTVAALDNTTGVLGVAPSVSLYAVKVLNSSGSGSYSGIVSGIEWATTNGMDVINMSLGGASGSTAMKQAVDNAYAKGVVVVAAAGNSGSSGNTNTIGYPAKYDSVIAVGAVDSNSNRASFSSVGAELEVMAPGAGVYSTYPTNTYATLNGTSMASPHVAGAAALILSKHPNLSASQVRNRLSSTATYLGSSFYYGKGLINVEAAAQ
B3: protease (Chirazyme P1): commercial enzyme preparation, source Bacillus licheniformis (protein, UniProt P00780 106-379, looked up)
Subtilisin Carlsberg: B2 Subtilisin Carlsberg
B4: protease, type X: commercial enzyme preparation, source B. thermoproteoliticus rokko (protein, UniProt P00800 233-548, looked up)
Thermolysin: ITGTSTVGVGRGVLGDQKNINTTYSTYYYLQDNTRGNGIFTYDAKYRTTLPGSLWADADNQFFASYDAPAVDAHYYAGVTYDYYKNVHNRLSYDGNNAAIRSSVHYSQGYNNAFWNGSQMVYGDGDGQTFIPLSGGIDVVAHELTHAVTDYTAGLIYQNESGAINEAISDIFGTLVEFYANKNPDWEIGEDVYTPGISGDSLRSMSDPAKYGDPDHYSKRYTGTQDNGGVHINSGIINKAAYLISQGGTHYGVSVVGIGRDKLGKIFYRALTQYLTPTSNFSQLRAAAVQSATDLYGSTSQEVASVKQAFDAVGVK
B5: protease, type XXVII: commercial enzyme preparation, (Nagarase) (protein, UniProt P00782 108-382, looked up)
Subtilisin BPN': AQSVPYGVSQIKAPALHSQGYTGSNVKVAVIDSGIDSSHPDLKVAGGASMVPSETNPFQDNNSHGTHVAGTVAALNNSIGVLGVAPSASLYAVKVLGADGSGQYSWIINGIEWAIANNMDVINMSLGGPSGSAALKAAVDKAVASGVVVVAAAGNEGTSGSSSTVGYPGKYPSVIAVGAVDSSNQRASFSSVGPELDVMAPGVSIQSTLPGNKYGAYNGTSMASPHVAGAAALILSKHPNWTNTQVRSSLENTTTKLGDSFYYGKGLINVQAAAQ

Legend:
Assay type in all cases: biochemical
[1] = Enzyme screens for resolution of diastereomeric mixture CHLP(MEMC)/THLP(MEMC) (Example 13); details: 0.050M each isomer, 5 h, 5.0 to 50 mg/mL enzyme, 25° C.; for conv. (percent conversion of the diastereomeric mixture): 0.100M potassium phosphate pH 7.0; for % de (diastereomeric excess of the cis-L-isomer): pH 7.0
Procedure: (§1) An aqueous solution containing 0.050M N-(methoxycarbonyl)-trans-4-hydroxy-L-proline methyl ester and 0.050M N-(methoxycarbonyl)-cis-4-hydroxy-L-proline methyl ester in 0.100M potassium phosphate (pH 7.0) was mixed with 5.0 to 50 mg/mL of commercial enzyme preparations (listed in the table below) at 25° C. The reactions were analyzed after 5 h by removal of a 0.200 mL sample and mixing with an equivalent volume of 0.100M propionic acid (HPLC internal standard) in water. The resulting solution was filtered through a 10K molecular weight cut-off filter to remove the enzyme and the filtrate analyzed by high pressure liquid chromatography on a HPX-87H column (Bio-Rad, 30 cm×7.8 mm) to determine the percent conversion of the diastereomeric mixture, and the diastereomeric excess of the N-(methoxycarbonyl)-cis-4-hydroxy-L-proline methyl ester.

[2] = Enzyme screens for resolution of racemic N-(methoxycarbonyl)-4-keto-D,L-proline methyl ester (Example 1); details: 0.100M racemate, 5.0 to 50 mg/mL enzyme, 25° C., optimum; for conv. (percent conversion of the racemate): 0.20M sodium succinate pH 6.0, 5 h or 0.20M sodium acetate pH 5.0, 24 h; for % ee (enantiomeric excess of the D-isomer; L-isomer with porcine liver esterase): pH 6.0, 5 h or pH 5.0, 24 h
Procedure: An aqueous solution (1.0 mL) containing 0.100M racemic N-(methoxycarbonyl)-4-keto-D,L-proline methyl ester in either 0.20M sodium succinate (pH 6.0) or 0.20M sodium acetate (pH 5.0) was mixed with 5.0 to 50 mg/mL of commercial enzyme preparations (listed in the table below) at 25° C. […] The dichloromethane extract was then analyzed by chiral gas chromatography on a Chiraldex G-TA column (Advanced Separation Technologies, Inc., 50 m×0.32 mm ID) to determine the percent conversion of the racemate, and the enantiomeric excess of the N-(methoxycarbonyl)-4-keto-D-proline methyl ester.

[3] = Enzyme screens for resolution of diastereomeric mixture CHDP(MEMC)/THLP(MEMC) (Example 9); details: 0.050M each isomer, 5 h or 24 h, 5.0 to 50 mg/mL enzyme, 25° C.; for conv. (percent conversion of the diastereomeric mixture): 0.100M potassium phosphate pH 7.0; for % de (diastereomeric excess of the D-isomer, CHDP(MEMC)): pH 7.0
Procedure: as §1, with “aqueous solution (1.0 mL) containing 0.050M” for “aqueous solution containing 0.050M”, “and 0.050M N-(methoxycarbonyl)-cis-4-hydroxy-D-proline methyl ester” for “and 0.050M N-(methoxycarbonyl)-cis-4-hydroxy-L-proline methyl ester”, “after 5 h or 24 h by” for “after 5 h by”, “conversion of each isomer of the diastereomeric” for “conversion of the diastereomeric”, “of the N-(methoxycarbonyl)-cis-4-hydroxy-D-proline methyl ester.” for “of the N-(methoxycarbonyl)-cis-4-hydroxy-L-proline methyl ester.”

[4] = Enzyme screens for resolution of racemic N-(acetyl)-4-keto-D,L-proline methyl ester (Example 7, comparative); details: 0.100M racemate, 5 h, 5.0 to 30 mg/mL enzyme, 25° C.; for conv. (percent conversion of the racemate): 0.20M sodium succinate pH 6.0; for % ee (enantiomeric excess of the D-isomer): pH 6.0
Procedure: An aqueous solution (1.0 mL) containing 0.100M racemic N-(acetyl)-4-keto-D,L-proline methyl ester in 0.20M sodium succinate (pH 6.0) was mixed with 5.0 to 30 mg/mL of commercial enzyme preparations (listed in the table below) at 25° C. […] The dichloromethane extract was then analyzed by chiral gas chromatography on a Chiraldex G-TA column (Advanced Separation Technologies, Inc., 50 m×0.32 mm ID) to determine the percent conversion of the racemate, and the enantiomeric excess of the N-(acetyl)-4-keto-D-proline methyl ester.

[5] = Enzyme screens for resolution of racemic N-(methoxycarbonyl)-4,4-dimethoxy-D,L-proline methyl ester (Example 8, comparative); details: 0.100M racemate, 6 h or 17 h, 5.0 to 30 mg/mL enzyme, 25° C.; for conv. (percent conversion of the racemate): 0.25M potassium phosphate pH 7.0; for % ee (enantiomeric excess of the D-isomer): pH 7.0
Procedure: An aqueous solution (1.0 mL) containing 0.100M racemic N-(methoxycarbonyl)-4,4-dimethoxy-D,L-proline methyl ester in 0.25M potassium phosphate (pH 7.0) was mixed with 5.0 to 30 mg/mL of commercial enzyme preparations (listed in the table below) at 25° C. […] The ethyl acetate extract was then analyzed by chiral gas chromatography on a Chiraldex G-TA column (Advanced Separation Technologies, Inc., 50 m×0.32 mm ID) to determine the percent conversion of the racemate, and the enantiomeric excess of N-(methoxycarbonyl)-4,4-dimethoxy-D-prolinemethyl ester.

Molecule | conv. (percent conversion of the diastereomeric mixture) [1] | % de (diastereomeric excess of the cis-L-isomer) [1] | conv. (percent conversion of the racemate) [2] | % ee (enantiomeric excess of the D-isomer; L-isomer with porcine liver esterase) [2] | conv. (percent conversion of the diastereomeric mixture) [3] | % de (diastereomeric excess of the D-isomer, CHDP(MEMC)) [3] | conv. (percent conversion of the racemate) [4] | % ee (enantiomeric excess of the D-isomer) [4] | conv. (percent conversion of the racemate) [5] | % ee (enantiomeric excess of the D-isomer) [5]
protease, pepsin: commercial enzyme preparation, source porcine stomach mucosa | 0% | 0% | 0% | 0% | 0% | 0% | 0% | 0% | – | –
protease, chymopapain: commercial enzyme preparation, source papaya latex | 0% | 0% | 0% | 0% | 0% | 0% | 0% | 0% | – | –
B1 | 0% | 0% | 0% | 0% | 0% | 0% | 0% | 0% | – | –
B2 | 6% | 5% | 17% | 18% | 16% | 16% | – | – | 42% | 22%
B3 | 25% | 31% | 54% | 65% | 28% | 26% | 43% | 37% | 44% | 22%
B4 | 0% | 0% | 0% | 0% | 0% | 0% | 0% | 0% | – | –
B5 | 17% | 16% | 27% | 21% | 2% | 4% | – | – | 44% | 30%
